Measurements as given in the DeepSol protein solubility set.

Test: soluble on expression in E. coli; label from the status in PepcDB or PDB records
In the case of “MSLEKLLRYLNDNDADKWQKNREKLDDETKAYYAEDLSLMDVLNDLWNGQSEQAATLYFGCYEKAAQNNFPSICEGEKIPLSQIRDKADQSIINLLEASKDKIPFSRALLDSIHATEYPVDSAMLQRLQNIREVALLEGMLKAPTPIIYQTYVKEYPNGKFIAQVNASENVRLYQLVKTAPTPANFKAFFEDPEMQKYYQDRGPRPYLAEVRTLYDDFLFQRIDSLKKEGNATAIRQIIDDYKNTPYLSTGARTHLNDLEYLSEKADFELLKPAIVNSESLGLLQEFLKTHKYKEFRDQAKNLRAPFILQAIVSTPTTVKYYTQGRLIKCCETDSTGNITTSYTYNDKGQLTTTLSVTEKNGQPINEVQTSRLYDPQGHCIFEVKTNPKTKTDFYRRARRIGIDGSIESDSLKYMDGRYTVSSYNKQGLLTETKEYNKNGEMEGYTVNKYDDKGRMTESQHQNMLFVNSPNQILSQKELYEYDKYGYLTRIVYQRIFGNSQKTSGCLTCLYDEYGNRIDGDSYYEYDNTGQWICRTSYDNPQQVERIQYIYKEGHHHHHH”, the “soluble on expression in E. coli” value is reported as “soluble”. With “MSLELDAVSRSYKRWAPIYDFSFGKVSESPRRRTAAHVNARGGRVLEVGVGTGLSLPLYSHRVAVTGIDFSHEMLARAREKVEEMGLEPVKELRQMDARELDFPDETFDTVVAMFLVSVVPEPERVVSEMARVCRKGGEVVIVNHFARDKGPLAAVEKALARFENTLGWHSDFAIERVTADPRLEVVEQTPMSPGGLFTFLRFQRREGHHHHHH” the “soluble on expression in E. coli” value was “soluble”. In the case of “MSLELRPLHPLDGLLKFAGLARSTFYYQQKVLLVDDKYAGLKDLIQATFYEHKGRYGYRRITAALRRAGHLVNHKTVQKLMGQLGLKSLIRVKKYRSYKGETGKAAPNLLKRDFKAQYLNQKWATDVTEFKVGGQKLYLSPIMDLYSGEIISYAIARRPLYSMVDEMLEGAFKRLGPHEKPILHSDQGWQYRMPIYQRLLNENSIAASMSRKGNCYDNAAIESFFSTLKSEFFYLNKFNDLDELQAGIEEYIEYYNHSRIKLKLNGLSPVEYRMQAAKAAEGHHHHHH”, the “soluble on expression in E. coli” value is reported as “not soluble”. In the case of “MSLELYAASYILPIASPPIPGGAVAVHDGCIVETGTLAELRSRHSGPVHDFPGCAILPGLVNAHTHLELTHFPSWKIRKGIDYSPRTYVDWIIQVIKIRRALSPQELELSVREGLRICLEAGTTAIGEILTDRSLIPLYADSGLRGRLLFEAIGHDPVRNAQLVEELDAAIASFSGGSFLPGISPHAPHTVAEHLHQDVYRLAYERNVPRVIHLAESREESDFFFDSSGKIAEFLYPHVRWESYLPAPRRTTATAWLDGLGVLNGTISAVHCVHLTPSDAEILAKRGVGVVLCPRSNDKLAVGRAPVVLLKRLGVPLALGTDSLASNDSLSLWDEMRYLLDTFPGIFTPTEALSMTTIGSARQLALADRTGSLDKGKHADFLVMKLPGRNGSGEALHEALIHSGEILQVFLAGNLVVSREAFSEGHHHHHH”, the “soluble on expression in E. coli” value is reported as “soluble”. In the case of “MSLEMLGIDVVIPDISYLIERADRVKAIFLTHGHDENIGGVFYLLNKLSVPVYGTKLTLALLREKLKQYGHNRKTDLREIHSKSVITFQSTKVSFFRTIHSIPDSVGVSFKTSLGSIVSAGDFKFDQTPALNQTCDIGEIAKIGNSGVLALLSDSANVERPGYTPSEAAVSGEISDALYNSQNRVIIAVFASNINRIQQVIHAAAQNGRKIAVAGKNLQSVLQLARKLGYIEADDELFISVQDVKKYPKREVAIITAGSQGEPLAALTRMANKAHKQLNIEEGDTVVIASTPIPGQELIYSKTVDLLARAGAQVIFAQKRVHVSGHGSQEELKLMINLLKPKYLIPVNGEYRMQKAHSKIAEETGMKRSDIFLIEKGDVVEFRGQNVKIGDKVPYGNILIDGLGVGDIGNIVLRDRRLLSQDGILEGHHHHHH”, the “soluble on expression in E. coli” value is reported as “not soluble”. With “MSLEPTAPSLTEEDLTEVKKDALENLRVYLCEKIIAERHFDHLRAKKILSREDTEEISCRTSSRKRAGKMLDYLQENPKGLDTLVESIRREKTQNFLIQKITDEVLKLRNIKLEHLKGLKCSSCEPFPDGATNNLSRSNSDESNFSEKLRASTVMYHPEGESSTTPFFSTNSSLNLPVLEVGRTENTIFSSTTLPRPGDPGAPPLPPDLQLEEEGTCANSSEMFLPLRSRTVSREGHHHHHH” the “soluble on expression in E. coli” value was “not soluble”. With “MSLEQPGQPPAHSLVSLRGSGHHVAIVDRSDGRLLGTIDSARAASQVHPGAVYLHQGETFVIEELDDQVALAVPDQPDYQTFARSTTDIRIVGEVDKVCNPAPGLWVSNLVVEVTDRVVGYTMKASDGSVLAMVPLQMPPQTLVTRAVAYTVDPLVLDSLGITDVPGALHAAEHAAIGLLPLIATCDRWDIGGVSTAEHPDTGLPTVFVYDGHPGGAGFADCGYERFPEWVATTFEAIRSCQCESGCPSCVQSPKCGNGNDPLSKEGAIALLGAMCTMLGVTEGHHHHHH” the “soluble on expression in E. coli” value was “not soluble”. For “MSLERQEHSPLILLGEDEKFQATIVKDVLERKNFDVRIAPNGKVAYEMFCENRLFQLVIVDVFMPVVDGLRSVKLIRQYESNHQIERCPIIICSGNESIIRSGNNSQDTGGDAFVSKPFRPSLIDLVYKLIGKKEGHHHHHH”, the “soluble on expression in E. coli” value was “not soluble”. For “MSLEVYYPGSVVFPADATLEQKVEMAAKVVPTLQQLAWQQMELTAFLHFGINTFTDSEWGDGKEDPALFNPVELDARQWVRILHEAGFRMVILTAKHHDGFCLWPTATTRHSVASSPWREGKGDVVKEVRAACEEYGMKFGIYLSPWDRNAECYGDSHRYNRFFVSQLTELLTHYGEVHEVWFDGANGEGPNGKRQEYDWETFYDTIRRLQPQAVMAIMGDDVRWVGNERGLGRTTEWSATVLTPGIYSRSKTERNRLGIRENSPDLGSREVLKEAGEIFWYPSEVDVSIRPGWFYHAAEDKKVKSLDKLVDIYFQSVGYNSVLLLNVPPDRRGLIHEADALRLKEWADYLGRAFAHDRVVDSARYAVVQGHAVEEYALESKTHINILMLQEDITKGQRTEAFTVEAWVDGAWQEIGRGTTIGYKRLLRIPAVETDRIRVRIEQEGHHHHHH”, the “soluble on expression in E. coli” value was “not soluble”. For “MSLEWQDLAQLPVSIFKDYVTDAQDAEKPFIWTEVFLREINRSNQEIILHIWPMTKTVILGMLDRELPHLELAKKEIISRGYEPVVRNFGGLAVVADEGILNFSLVIPDVFERKLSISDGYLIMVDFIRSIFSDFYQPIEHFEVETSYCPGKFDLSINGKKFAGLAQRRIKNGIAVSIYLSVCGDQKGRSQMISDFYKIGLGDTGSPIAYPNVDPEIMANLSDLLDCPMTVEDVIDRMLISLKQVGFNDRLLMIRPDLVAEFDRFQAKSMANKGMVSRDEEGHHHHHH”, the “soluble on expression in E. coli” value was “soluble”. With “MSLFIISQVFSPEGQRVLTMQFTKWFIALPLAVTALSGCSLLERLVYRIDINQGNYVDQQSVDQLKFGMSKDQVRFVLGSPMLVENGYPDTWYYIYHHTQGHNDPVQKNLIVKFNDGGKLVNVAGDFPAGDSFFEGVNEGHHHHHH” the “soluble on expression in E. coli” value was “soluble”. For “MSLFKKNFDIKDDRNLTMLVDFYELTMGNGYLNKNVGNKTAYFDMFFRRVPDNGGYCIMAGVQQLTEYLSNLRFTKEDIDYLRSKHEFSEEFLSYLKDFKFECDVWAVPEGNPVFPNEPLVTVKGPAIQAQFVETMILLTINHQTLIATKANRICRAAGNRPVMEFGSRRAQGYDGAIYGARAAVIGGCSSTACTISEQMFGVNAVGTMAHSWVQLFDNEFEAFKAWADVYPENCVLLVDTYNVLKSGLPNAIKVFDEVLKPKGIRPSGIRIDSGDITYLTKKCRKILDEAGYSDCKIVISNSLDEHIITDVLLQGAEVDSFGVGERLITAKSEPVFGGVFKLCAVENDEGNIVPKIKISENQEKITNPGFKKIYRLFDKETDKALADLITLNDEVIDETKPLEIFDPIYTWKKKKLTHYYVKDLRVQLFKKGELVYENPEVLEIRNIAKKETEKLWAEVLRLENPHTYYVDLSKKLWDLKHNLLEKYSNAEGHHHHHH”, the “soluble on expression in E. coli” value was “soluble”. For “MSLFRGFGRSTLAKIGSTEISTEQFRQTYNDRLQQIGRQFGRPLTPDQARAIGIDRQVLQQTIAEAALDEDARRLGLGQSDADTMKSILEDPNFKGANGQFDANRFQQLIRQFGFTEQRYLAEQRRVALRRQIAGSLTAGLEAPKTLMQALSQFQSEERAIDYLKLTDAQAGTIAAPSPADLTAFYDSHKAQFRAPEYRKISFLVVTPESIAKWAEVSDADAQKLFEQRKDKLSTPEKRQLLQIVFPSVEEAQAGRAKIASGTSFADLAKERGVKPADLDLGLVSQSEMLDQKVAAAAFALPLNEVSQPVQGQFGTVLLEVTKIETEGHHHHHH”, the “soluble on expression in E. coli” value was “soluble”. For “MSLFTFKKGLHLPYNKEFTKDKSIEIFKPKKELIFPLSQHIGAPCEPIVEVGQKVLVNEKIADSSAFVSSPIHSSVSGTIKDIREIQSINGSNTQAIIIENDSKYEKYPKENLKYSSKLSLKDVVKLVKDYGIVGLGGATFPCHVKLNVKEDKEIKYIIINAAECEPYLTCDHRVMLEYTEEIIGGLRILLELFPKALIYIGIEDNKLNAIDKFKSILGEDNKIKVMPLKSKYPQGSEKHLIYALTKLQVPSGKLPLDIGCIAFNVSTIYQLYASLINGLPLTERIITVTGDSIRSPKNLRVKIGTQVKDIIEFCGGFINKPNKIILGGPMMGTSVNSLDLPITKGTSGILCLSKVDTSPNSHCIRCGKCLNSCPMNLIPQKLNELALKDKFDEFEFLGGMDCLECGCCTFSCPAKISIVNNIRNAKKSLRNKSKNLEHHHHHH”, the “soluble on expression in E. coli” value was “soluble”. For “MSLGDPGLKFQEYILQHIEPSKSYEIAICQSIGRRGKMEDTVVVDCSSIEGTDIIGVFDGHNGKDAAYLCTEQYIKTFKENEGTFEAKLIKTHKQLHDKSCETSKSGTTSTVAFIDKDTIRIAYCGDSPAYIYKNNKIKKITKEHKATNSAEVERIEMNGGVVFGMFGVKRVNGQIMVTRSIGDPSLHPPLTTEPDFIKLEKKGIELLFLMSDGITDGVTEKELEDIISKSGGMFNIAFDTLKLAYVNESSDNLTFIVIKINEGHHHHHH”, the “soluble on expression in E. coli” value was “soluble”. With “MSLGDVEEWVNPDQSTSQPVTKAALVEKTVAMTEAGKFASFFQEGELETIQKLRVSGPLDASDIDAIRYQMPRLEVLDMKEVELIESDKTYGAEDHREHYKLKKGVITPKMLQCFSLLVTLVLPKDITEIEDYGIYGNKNLVSIEIPVTVKKVGAHVFKSCSSLQKVDLPNVETLGERVFESCGKLTKVTLSPDLQVIPDYAFQYCGSLADVPLPSSLVSIGVSAFRDCSSLVDVPLPSSLVSIGTGAFANCKSLTSVDMPNTVTTLENGTYQNCTNLKDVKLSDNLKRIGAENDHYSGSSFEGCQNLASIDIPASVSWINSFSFKNCVNLKTVTFHEGLQVIGGKSFQGCSSLVSVSIPKSVTSIGDESFEYCSSLNEMNLSQEGTPEINSSAFAYSGLSSITIPETVTSVGGGILNGCSRLTSIFWECNRDVPNIIDLNSTSCLLYLSHDVKCPSTWKNVIEPGGVAQTIVLKNEKRYLCPKAFTANKISYTREFTMKTIPGKAAGWQTIILPFSVQTITDKDGNRLAPFMAEGDGIWKRFWLRELQADGTYKDVTAIEANKPYLIAMPNAEEYASEYCISGNVTFEADNVSLGETPEIVPTDGGAYSMYGTYDWVTGTRKVYALNLDNWSDGSVYYEKGSVFVPSLRDVAPFECYLQNNNPSASTRGFIGIVGSHASTRAGEGHHHHHH” the “soluble on expression in E. coli” value was “soluble”. For “MSLGEGFPSFEEMVEKELEGYSGFRFLDRGIYAKQLEQWFRFFPKKQFLILKSENFFEDPAKEFRKVICFLNLPVWELPEYANVNWKVLARSKRVERYQKINKETRERLLYYFKPFNDQLYALINKNFGWKEGHHHHHH”, the “soluble on expression in E. coli” value was “not soluble”. For “MSLGFIDAQREHFGVESICKALQVAPSGYWRRAARRSNPALLPARAKGDAELVPQIERVWTSNLQVYGYRKVWRQMLREGTAVARCTVERLMRLKGLQGARRGKKILTTVPDAKAPCPLDRVNRQFKADKPNQLWVSDFTYVSTWQGMVYVAFVVDVYARFIVGWRVSRSMRTDFVLDALEQALYARKPERDGALIHHSDRGLQYVSIRYSERLAEAGIEPSVGSKGDSYDNALAETINGLYKTELIHRRAPWKSKEAVELATLEWVSWFNHHRLMESLGYIPPAEAEANYHWQLAGQAMSVEGHHHHHH”, the “soluble on expression in E. coli” value was “not soluble”.
